B1: library; numbered along this chain (parent)
chain: MAAAAAAAAEQQSSNGPVKKSMREKAVERRSVNKEHNSNFKAGYIPIDEDRLHKTGLRGRKGNLAICVIILLFILAVINLIITLVIWAVIRIGPNGCDSMEFHESGLLRFKQVSDMGVIHPLYKSTVGGRRNENLVITGNNQPIVFQQGTTKLSVENNKTSITSDIGMQFFDPRTQNILFSTDYETHEFHLPSGVKSLNVQKASTERITSNATSDLNIKVDGRAIVRGNEGVFIMGKTIEFHMGGNMELKAENSIILNGSVMVSTTRLPSSSSGDQLGSGDWVRYKLCMCADGTLFKVQVTSQNMGCQISDNPCGNTH

Variants of: B1
Assay: SGCB cell-surface expression functional score (HA stain, bin4 vs bin1, normalised to synonymous) (log10 ratio); higher = more cell-surface SGCB (functional)
Method: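 Deep mutational scan of full-length human SGCB (YFP-SGCB-HA, NNN codon sublibraries A-F) delivered by lentivirus at low MOI into ADG-HEK293 cells stably expressing SGCA, SGCD and SGCG. YFP-positive cells were stained for surface HA on unpermeabilized cells and FACS-sorted into bins. The functional score is log10(frequency in high bin 4 / frequency in low bin 1), normalised per chunk so that synonymous variants have mean 0 and SD 0.5. Scores are the median over codons and over duplicate biological replicates; scores below -0.5 are called non-functional. Scale: negative means deleterious.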

SGCB cell-surface expression functional score (log10): each site, then its substitutions
R23: N 0.03; C 0.49; M -0.27; V 0.59; D -0.13; G 0.48; H 0.2; S -0.16; Q 0.33; L 0.16; F 0.12; E 0.28; I -0.31; P 0.31; Y 0.05; K -0.04; W -0.61; A -0.06; T 0.24
S31: R -0.03; A -0.25; P 0.13; I 0.39; V 0.19; H 0.19; G 0.19; E 0.24; C 0.19; M -0.69; N 0.37; Y -0.26; K 0.25; F -0.24; W 0.21; T 0.06; L 0.11; Q -0.35; D 0.16
E35: G 0.11; R 0.18; D 0.11; I 0.08; N 0.01; H 0.32; V 0.1; S 0.03; F -0.1; Y 0.26; Q -0.06; T 0.06; C -0.07; P -0.21; W 0.28; L -0.2; K 0.23; A 0.3; M 0.1
N33: R 0.1; M 0.11; A 0.36; Y 0.04; L -0.11; E 0.11; Q -0.23; I 0.03; F 0.1; P 0.04; T -0.07; D 0.4; S -0.01; C -0.01; V 0.23; K 0.24; H 0.48; G 0.33; W -0.14
H36: C -0.16; D 0.26; A 0.35
E24: D 0.17; P 0; F -0.05; A 0; C -0.3; Q 0.01; R -0.41; H 0.46; V 0.26; L 0.02; T 0.2; Y -0.19; N 0.02; S 0.26; G 0.08; K 0.09; W 0.05; M -0.63; I 0.08
E28: W -0.12; K -0.15; G -0.33; S 0.21; M 0.57; A -0.15; F 0.2; Q 0; N -0.09; R 0.1; I 0.42; H -0.19; P 0.08; V 0.15; Y 0.37; D -0.25; L 0.05; T 0.1; C 0.35
K19: F 0.01; T -0.07; A 0.35; N 0.14; I 0.14; S 0.21; V -0.01; E 0.33; G 0.02; D 0.06; C -0.11; M 0.02; Q -0.12; L 0.3; Y 0.34; P 0.42; R 0.18; W 0.32; H 0.21
K25: S 0.46; Y -0.31; I 0.13; V 0.16; E 0.07; D 0.19; H -0.78; R -0.14; Q 0.5; T 0.27; G -0.06; M -0.1; P 0.05; N 0.42; A -0.05; C 0.39; W -0.25; L 0.18; F -0.28
R29: F -0.17; K -0.66; C 0.5; T -0.04; W 0.21; H -0.15; D -0.22; Q 0.16; V -0.29; M -0.81; I 0.13; E 0.41; Y 0.23; N 0.21; L -0.3; P 0.32; G 0.3; A 0.46; S 0.25
M22: A 0.08; H 0.19; G -0.11; Q 0.27; W 0.08; D -0.21; S 0.52; V 0.01; E 0.07; L 0.37; R 0.01; Y -0.14; K 0.08; F 0.1; I -0.22; C 0.56; T 0.16; N 0.39; P 0.17
S21: H 0.03; V 0.14; Q -0.25; I 0.3; K 0.75; T 0.07; D 0.33; W 0.3; A 0.2; C 0.5; E -0.28; M -0.02; N 0.32; G 0.23; L -0.08; R 0.08; F -0.32; P 0.12; Y -0.19
K20: A 0.08; D 0.22; T 0; N -0.16; F 0.1; P 0.39; Y -0.59; Q 0.49; E 0.06; L 0.12; H -0.13; W 0.05; G -0.09; I 0.09; V 0.32; C 0.12; R 0.2; M 0.39; S 0.14
K34: A -0.03; C 0.33; P 0.25; H 0.6; D 0.26; E 0.34; W 0.11; Q -0.08; N -0.07; F -0.14; R 0.1; L 0.21; S 0.52; V 0.44; M -0.24; Y 0.56; G 0.01; T 0.27; I -0.05
V32: S 0.11; E -0.59; G 0.1; Q -0.03; R 0.37; A 0.26; L -0.06; N 0.67; K -0.04; D 0.47; P 0.11; F -0.5; W -0.05; H 0.35; Y -0.45; M -0.13; T -0.08; C 0.14; I 0.36
V18: Y 0.14; W 0.55; N -0.03; P 0.29; S 0.21; T 0.24; Q 0.17; R 0.23
R30: C 0.31; Q 0.15; M -0.06; F 0.27; K 0.16; T 0.19; L 0.15; S 0.04; A 0.22; W 0.33; N 0.64; H -0.02; Y -0.56; D 0.85; I -0.19; V -0.05; E 0.42; G 0.59; P -0.15
V27: S 0.13; N 0.45; E 0.04; M -0.41; I 0.03; D -0.2; F 0.28; R 0.06; Q 0.09; C -0.05; H 0.05; G -0.22; L 0.26; K 0.02; Y 0.26; A 0.22; T 0.04; P -0.17; W 0.1
A26: C -0.13; F 0.47; L -0.05; I 0.06; S 0.09; M 0.77; W 0.15; T 0.24; D 0.34; P 0.09; V 0.53; H 0.39; K 0.41; G -0.21; N -0.24; E 0.27; Y -0.11; R 0.15; Q 0.19

Reference: the supplement of paper PMC10266784
